# Laboratory results from patent publication US20040072184A1.
# T1: PKB-sub peptide
# T1 sequence (peptide): CKRPRAASFAE
# T2: CapK peptide
# T2 sequence (peptide): CGRTGRRNSI
# Columns and labels:
# PKB-sub peptide = target: T1, PKB-sub peptide; assay: cell-based or functional assay
# CapK peptide = target: T2, CapK peptide; assay: cell-based or functional assay
binder,measurement,setting,value
"GST-SGK2 fusion protein (enzyme, not shown: a dimerising Fc or GST) MNSSPAGTPSPQPSRANGNINLGPSANPNAQPTDFDFLKVIGKGNYGKVLLAKRKSDGAFYAVKVLQKKSILKKKEQSHIMAERSVLLKNVRHPFLVGLRYSFQTPEKLYFVLDYVNGGELFFHLQRERRFLEPRARFYAAEVASAIGYLHSLNIIYRDLKPENILLDCQGHVVLTDFGLCKEGVEPEDTTSTFCGTPEYLAPEVLRKEPYDRAVDWWCLGAVLYEMLHGLPPFYSQDVSQMYENILHQPLQIPGGRTVAACDLLQSLLHKDQRQRLGSKADFLEIKNHVFFSPINWDDLYHKRLTPPFNPNVTGPADLKHFDPEFTQEAVSKSIGCTPDTVASSSGASSAFLGFSYAPEDDDILDC","kinase activity, PKB sub (CCPM1); GST-SGK2 from Hi5 cells treated with Calyculin A",PKB-sub peptide,92500 CCPM1
same,"kinase activity, PKB sub (CCPM1); GST-SGK2 from Hi5 cells treated with Microcysteine",PKB-sub peptide,217 CCPM1
same,"kinase activity, PKB sub (CCPM1); GST-SGK2 from Hi5 cells treated with Okadaic Acid",PKB-sub peptide,132000 CCPM1
same,"kinase activity, PKB sub (CCPM1); GST-SGK2 from untreated Hi5 cells",PKB-sub peptide,979 CCPM1
same,"kinase activity, CapK sub (CCPM1); GST-SGK2 from Hi5 cells treated with Calyculin A",CapK peptide,59300 CCPM1
same,"kinase activity, CapK sub (CCPM1); GST-SGK2 from Hi5 cells treated with Microcysteine",CapK peptide,330 CCPM1
same,"kinase activity, CapK sub (CCPM1); GST-SGK2 from Hi5 cells treated with Okadaic Acid",CapK peptide,162000 CCPM1
same,"kinase activity, CapK sub (CCPM1); GST-SGK2 from untreated Hi5 cells",CapK peptide,1080 CCPM1
